Measurements taken from article PMC12096823, “SloR-SRE binding to the S. mutans mntH promoter is cooperative”.
Where a chain is given by its changes, count along the chain named.

Tests used:
[1] = target: T1, SloR (Streptococcus mutans UA159?) (UniProt I6L923); assay: EMSA; conditions: BLI: PBS pH 7.2, 0.1% Tween-20, 100 uM MnCl2, 30 C; EMSA: 60-200 nM SloR, 16 uL, 12% native gel, buffer as cited; footprinting: 8.4 mM NaH2PO4, 11.6 mM …
T1 sequence: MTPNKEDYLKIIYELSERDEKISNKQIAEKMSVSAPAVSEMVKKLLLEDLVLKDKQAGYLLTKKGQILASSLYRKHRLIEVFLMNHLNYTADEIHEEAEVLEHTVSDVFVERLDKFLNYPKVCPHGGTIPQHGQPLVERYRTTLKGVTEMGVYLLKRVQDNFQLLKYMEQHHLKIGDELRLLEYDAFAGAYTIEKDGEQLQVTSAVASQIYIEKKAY

[2] = target: T1, SloR (Streptococcus mutans UA159?); assay: footprinting; conditions: BLI: PBS pH 7.2, 0.1% Tween-20, 100 uM MnCl2, 30 C; EMSA: 60-200 nM SloR, 16 uL, 12% native gel, buffer as cited; footprinting: 8.4 mM NaH2PO4, 11.6 mM …
SloR (BLI preparation) [3] = target: T2, SloR (BLI preparation) (UniProt I6L923 1-217); assay: BLI; 100 uM MnCl2; DNA up to 20 uM; BLI: PBS pH 7.2, 0.1% Tween-20, 100 uM MnCl2, 30 C; EMSA: 60-200 nM SloR, 16 uL, 12% native gel, buffer as cited; footprinting: 8.4 mM NaH2PO4, 11.6 mM Na2HPO4, 50 mM NaCl, 5 mM MgCl2, 10 ug/mL BSA, 200 ug/mL salmon sperm DNA, 7.5 uM MnCl2, 30 C; conditions: protein: recombinant; tags: immobilized on NTA biosensor; chain copies: 2; blunt
T2 sequence: T1 sequence

SloR [4] = target: T3, SloR (UniProt I6L923 1-217); assay: EMSA; BLI: PBS pH 7.2, 0.1% Tween-20, 100 uM MnCl2, 30 C; EMSA: 60-200 nM SloR, 16 uL, 12% native gel, buffer as cited; footprinting: 8.4 mM NaH2PO4, 11.6 mM Na2HPO4, 50 mM NaCl, 5 mM MgCl2, 10 ug/mL BSA, 200 ug/mL salmon sperm DNA, 7.5 uM MnCl2, 30 C; conditions: protein: recombinant; tags: native (untagged) SloR purified for EMSA and footprinting; chain copies: 2; label: 5' 32P; blunt
T3 sequence: T1 sequence

SloR [5] = target: T3, SloR; assay: EMSA; 60 nM SloR; two band shifts, intensity 1.3 and 0.03 AU; BLI: PBS pH 7.2, 0.1% Tween-20, 100 uM MnCl2, 30 C; EMSA: 60-200 nM SloR, 16 uL, 12% native gel, buffer as cited; footprinting: 8.4 mM NaH2PO4, 11.6 mM Na2HPO4, 50 mM NaCl, 5 mM MgCl2, 10 ug/mL BSA, 200 ug/mL salmon sperm DNA, 7.5 uM MnCl2, 30 C; conditions: protein: recombinant; tags: native (untagged) SloR purified for EMSA and footprinting; chain copies: 2; label: 5' 32P; blunt
SloR [6] = target: T3, SloR; assay: EMSA; 60 nM SloR; BLI: PBS pH 7.2, 0.1% Tween-20, 100 uM MnCl2, 30 C; EMSA: 60-200 nM SloR, 16 uL, 12% native gel, buffer as cited; footprinting: 8.4 mM NaH2PO4, 11.6 mM Na2HPO4, 50 mM NaCl, 5 mM MgCl2, 10 ug/mL BSA, 200 ug/mL salmon sperm DNA, 7.5 uM MnCl2, 30 C; conditions: protein: recombinant, tags: native (untagged) SloR purified for EMSA and footprinting, chain copies: 2, blunt
SloR (BLI preparation) [7] = target: T2, SloR (BLI preparation); assay: BLI; 100 uM MnCl2; BLI: PBS pH 7.2, 0.1% Tween-20, 100 uM MnCl2, 30 C; EMSA: 60-200 nM SloR, 16 uL, 12% native gel, buffer as cited; footprinting: 8.4 mM NaH2PO4, 11.6 mM Na2HPO4, 50 mM NaCl, 5 mM MgCl2, 10 ug/mL BSA, 200 ug/mL salmon sperm DNA, 7.5 uM MnCl2, 30 C; conditions: protein: recombinant; tags: immobilized on NTA biosensor; chain copies: 2; blunt
SloR (BLI preparation) [8] = target: T2, SloR (BLI preparation); assay: BLI; 100 uM MnCl2; Kd only in figure; BLI: PBS pH 7.2, 0.1% Tween-20, 100 uM MnCl2, 30 C; EMSA: 60-200 nM SloR, 16 uL, 12% native gel, buffer as cited; footprinting: 8.4 mM NaH2PO4, 11.6 mM Na2HPO4, 50 mM NaCl, 5 mM MgCl2, 10 ug/mL BSA, 200 ug/mL salmon sperm DNA, 7.5 uM MnCl2, 30 C; conditions: protein: recombinant; tags: immobilized on NTA biosensor; chain copies: 2; label: 5' 32P in EMSA; blunt

GCATACTTAACATATGCTGTTTTTTATGCTATAATGCAATTAACCCAATTATATTAGAAAAGAGATTTTCAAAATGAAAACTCATCCAAAAAAGCAATCACTCAGCGAGGT (double strand) [mntH 111-bp probe (-75 to +36 of coding)]
binding [1]: no binding

GATTGTTTAGACATCTCTGATTAATTTTCCATAATCTCTATTGTGTTTTATACTGTCAGTAATTCTTACAAACTCTTTATATTCAGTAATAATAGGTACACCTTTTTTAATTTTTAAGCATACTTAACATATGCTGTTTTTTATGCTATAATGCAATTAACCCAATTATATTAGAAAAGAGATTTTCAAAATGAAAACTCATCCAAAAAAGCAATCACTCAGCGAGGTCAATCAGAGCGTTCGTGTTCCTAAAAATGCCTCTTTTTTAACAACTTTAAGAGCTTTTTTAGG (double strand) [mntH 291-bp footprint amplicon]
binding [2]: binds

B1: mntH.22.SRE2.WT (dsDNA)
DNA 1: AATAATAGGTACACCTTTTTTA
DNA 2: TAAAAAAGGTGTACCTATTATT
binding result (SloR (BLI preparation) [3]): no binding

B2: mntH.22.SRE1.10IR (SRE1 spacer with -10 SRE IRs) (dsDNA)
DNA 1: GCAATTAAGCATACTATATTAG
DNA 2: CTAATATAGTATGCTTAATTGC
binding result (SloR [4]): no binding

B3: mntH 100-bp deletion amplicon (dsDNA)
DNA 1: AGGTACACCTTTTTTAATTTTTAAGCATACTTAACATATGCTGTTTTTTATGCTATAATGCAATTAACCCAATTATATTAGAAAAGAGATTTTCAAAATG
DNA 2: CATTTTGAAAATCTCTTTTCTAATATAATTGGGTTAATTGCATTATAGCATAAAAAACAGCATATGTTAAGTATGCTTAAAAATTAAAAAAGGTGTACCT
binding result (SloR [4]): binds

B4: mntH.22.SRE1.CC (left IR mutant) (dsDNA)
DNA 1: ATTTTTCCGCATACTTAACATA
DNA 2: TATGTTAAGTATGCGGAAAAAT
binding result (SloR [4]): no binding

B5: mntH.100.WT (dsDNA)
DNA 1: TACTGTCAGTAATTCTTACAAACTCTTTATATTCAGTAATAATAGGTACACCTTTTTTAATTTTTAAGCATACTTAACATATGCTGTTTTTTATGCTATA
DNA 2: TATAGCATAAAAAACAGCATATGTTAAGTATGCTTAAAAATTAAAAAAGGTGTACCTATTATTACTGAATATAAAGAGTTTGTAAGAATTACTGACAGTA
binding result (SloR [5]): binds

B6: mntH.100.CC.CT (SRE1+SRE2 mutant) (dsDNA)
DNA 1: B5 DNA 1 with A44C, G45T, A66C, A67C
DNA 2: B5 DNA 2 with T34G, T35G, C56A, T57G
binding result (SloR [6]; label: 5' 32P): no binding

B7: mntH.22.SRE1.w10.spcr (spacer variant) (dsDNA)
DNA 1: ATTTTTAACCCAATTTAACATA
DNA 2: TATGTTAAATTGGGTTAAAAAT
binding result (SloR [4]): no binding

B8: mntH 159-bp promoter probe (dsDNA)
DNA 1: TCTCTATTGTGTTTTATACTGTCAGTAATTCTTACAAACTCTTTATATTCAGTAATAATAGGTACACCTTTTTTAATTTTTAAGCATACTTAACATATGCTGTTTTTTATGCTATAATGCAATTAACCCAATTATATTAGAAAAGAGATTTTCAAAATG
DNA 2: CATTTTGAAAATCTCTTTTCTAATATAATTGGGTTAATTGCATTATAGCATAAAAAACAGCATATGTTAAGTATGCTTAAAAATTAAAAAAGGTGTACCTATTATTACTGAATATAAAGAGTTTGTAAGAATTACTGACAGTATAAAACACAATAGAGA
binding result (SloR [4]): binds

B9: mntH.90.WT (dsDNA)
DNA 1: GTAATTCTTACAAACTCTTTATATTCAGTAATAATAGGTACACCTTTTTTAATTTTTAAGCATACTTAACATATGCTGTTTTTTATGCTA
DNA 2: TAGCATAAAAAACAGCATATGTTAAGTATGCTTAAAAATTAAAAAAGGTGTACCTATTATTACTGAATATAAAGAGTTTGTAAGAATTAC
Kd (SloR (BLI preparation) [7]): ~33 nM

B10: mntH.22.SRE1.WT (dsDNA)
DNA 1: ATTTTTAAGCATACTTAACATA
DNA 2: TATGTTAAGTATGCTTAAAAAT
binding result (SloR (BLI preparation) [8]): binds | binding result (SloR [6]; label: 5' 32P in EMSA): binds

B11: sloA.72.WT (dsDNA)
DNA 1: AGCCTTAATTAATGTAGATTATATTTTTAATTGAACTGAATTAAAAATATAATCCAATATAATGAATATTTT
DNA 2: AAAATATTCATTATATTGGATTATATTTTTAATTCAGTTCAATTAAAAATATAATCTACATTAATTAAGGCT
Kd (SloR (BLI preparation) [7]): ~31 nM
